Numbering of substitutions follows the chain as printed. Names may count otherwise.

The target of assay [1] is T1, rHuman ErbB2/Fc Chimera, CF (R&D Systems Cat#1129-ER) (human, UniProt P04626 23-652).
T1 construct: Bought recombinant protein; Fc part of the bought chimera not given
Briefly: MSD multispot ECL, antigen spotted on plate, Fab in solution; blank spot of this row 237.

In assay [2] the target is T2, rHuman IGF-1 sR (insulin-like growth factor-1 soluble receptor), CF (R&D Systems Cat#391-GR) (human, UniProt P08069 31-932).
T2 construct: Bought recombinant soluble receptor; The column head prints only 'IGF-1'
Described as above.

Assay [3] addresses T3, rHuman EGF R/Fc Chimera, CF (R&D Systems Cat#344-ER) (human, UniProt P00533 25-645).
T3 construct: Bought recombinant protein; Fc part of the bought chimera not given
The description is as above.

The target of assay [4] is T4, Recombinant Human DLL4 (R&D Systems Cat#1506-D4/CF) (human, UniProt Q9NR61 27-524).
T4 construct: Bought recombinant protein; also called delta-like protein 4; rHuman DLL4
Described as above.

Assay [5] deals with T5, rHuman Notch-1/Fc Chimera, CF (R&D Systems Cat#3647-TK) (human, UniProt P46531 19-526).
T5 construct: Bought recombinant protein; Fc part of the bought chimera not given
The assay is described as above.

Assay [6] addresses T6, rHuman HGF R/c-MET/Fc Chimera, CF (R&D Systems Cat#358-MT/CF) (human, UniProt P08581 25-932).
T6 construct: Bought recombinant protein; also called HGF R/Fc; Fc part of the bought chimera not given
The description is as above.

Assay [7] concerns the target T7, rHuman CD44/Fc Chimera, CF (R&D Systems Cat#3660-CD) (human, UniProt P16070 21-220).
T7 construct: Bought recombinant protein; Fc part of the bought chimera not given
The assay is described as above.

Assay [8] concerns the target T8, rHuman Erythropoietin R/Fc Chimera, CF (R&D Systems Cat#963-ER) (human, UniProt P19235 25-250).
T8 construct: Bought recombinant protein; also called EPO R; Epo R/Fc; Fc part of the bought chimera not given
T8 sequence (looked up): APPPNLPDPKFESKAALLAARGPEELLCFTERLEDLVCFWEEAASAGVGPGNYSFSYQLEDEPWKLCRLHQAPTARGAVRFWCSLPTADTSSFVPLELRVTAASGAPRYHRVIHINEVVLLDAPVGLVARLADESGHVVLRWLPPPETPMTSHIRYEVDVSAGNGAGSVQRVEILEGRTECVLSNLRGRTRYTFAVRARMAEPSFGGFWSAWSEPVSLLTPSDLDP
The assay is described as above.

Assay [9] addresses T9, rHuman P-Cadherin/Fc Chimera, CF (R&D Systems Cat#861-PC) (human, UniProt P22223 108-654).
T9 construct: Bought recombinant protein; Fc part of the bought chimera not given
The description is as above.

The target in assay [10] is T1, rHuman ErbB2/Fc Chimera, CF (R&D …). Description: MSD multispot ECL, antigen spotted on plate, Fab in solution; blank spot of this row 298.
Assay [11] deals with T2, rHuman IGF-1 sR (insulin-like growth …). The assay is described as above.
The target of assay [12] is T3, rHuman EGF R/Fc Chimera, CF (R&D …). The assay is described as above.
The target of assay [13] is T4, Recombinant Human DLL4 (R&D Systems …). Described as above.
For assay [14], the target named is T5, rHuman Notch-1/Fc Chimera, CF (R&D …). Described as above.
Assay [15] deals with T6, rHuman HGF R/c-MET/Fc Chimera, CF (R&D …). The assay is described as above.
The target in assay [16] is T7, rHuman CD44/Fc Chimera, CF (R&D Systems …). The assay is described as above.
For assay [17], the target named is T8, rHuman Erythropoietin R/Fc Chimera, CF …. The assay is described as above.
For assay [18], the target named is T9, rHuman P-Cadherin/Fc Chimera, CF (R&D …). The assay is described as above.
Assay [19] deals with T1, rHuman ErbB2/Fc Chimera, CF (R&D …). Description: MSD multispot ECL, antigen spotted on plate, Fab in solution; blank spot of this row 258.
The target in assay [20] is T2, rHuman IGF-1 sR (insulin-like growth …). Described as above.
The target of assay [21] is T3, rHuman EGF R/Fc Chimera, CF (R&D …). The description is as above.
The target in assay [22] is T4, Recombinant Human DLL4 (R&D Systems …). Described as above.
Assay [23] deals with T5, rHuman Notch-1/Fc Chimera, CF (R&D …). The assay is described as above.
Assay [24] addresses T6, rHuman HGF R/c-MET/Fc Chimera, CF (R&D …). The description is as above.
Assay [25] concerns the target T7, rHuman CD44/Fc Chimera, CF (R&D Systems …). Described as above.
Assay [26] has as its target T8, rHuman Erythropoietin R/Fc Chimera, CF …. Described as above.
Assay [27] deals with T9, rHuman P-Cadherin/Fc Chimera, CF (R&D …). The description is as above.
In assay [28] the target is T1, rHuman ErbB2/Fc Chimera, CF (R&D …). Briefly: MSD multispot ECL, antigen spotted on plate, Fab in solution; blank spot of this row 440.
Assay [29] concerns the target T2, rHuman IGF-1 sR (insulin-like growth …). The assay is described as above.
Assay [30] concerns the target T3, rHuman EGF R/Fc Chimera, CF (R&D …). The description is as above.
Assay [31] addresses T4, Recombinant Human DLL4 (R&D Systems …). Described as above.
Assay [32] addresses T5, rHuman Notch-1/Fc Chimera, CF (R&D …). Described as above.
Assay [33] has as its target T6, rHuman HGF R/c-MET/Fc Chimera, CF (R&D …). Described as above.
The target of assay [34] is T7, rHuman CD44/Fc Chimera, CF (R&D Systems …). The description is as above.
The target in assay [35] is T8, rHuman Erythropoietin R/Fc Chimera, CF …. The assay is described as above.
The target of assay [36] is T9, rHuman P-Cadherin/Fc Chimera, CF (R&D …). The assay is described as above.

T6 sequence (P08581 25-932, change not shown): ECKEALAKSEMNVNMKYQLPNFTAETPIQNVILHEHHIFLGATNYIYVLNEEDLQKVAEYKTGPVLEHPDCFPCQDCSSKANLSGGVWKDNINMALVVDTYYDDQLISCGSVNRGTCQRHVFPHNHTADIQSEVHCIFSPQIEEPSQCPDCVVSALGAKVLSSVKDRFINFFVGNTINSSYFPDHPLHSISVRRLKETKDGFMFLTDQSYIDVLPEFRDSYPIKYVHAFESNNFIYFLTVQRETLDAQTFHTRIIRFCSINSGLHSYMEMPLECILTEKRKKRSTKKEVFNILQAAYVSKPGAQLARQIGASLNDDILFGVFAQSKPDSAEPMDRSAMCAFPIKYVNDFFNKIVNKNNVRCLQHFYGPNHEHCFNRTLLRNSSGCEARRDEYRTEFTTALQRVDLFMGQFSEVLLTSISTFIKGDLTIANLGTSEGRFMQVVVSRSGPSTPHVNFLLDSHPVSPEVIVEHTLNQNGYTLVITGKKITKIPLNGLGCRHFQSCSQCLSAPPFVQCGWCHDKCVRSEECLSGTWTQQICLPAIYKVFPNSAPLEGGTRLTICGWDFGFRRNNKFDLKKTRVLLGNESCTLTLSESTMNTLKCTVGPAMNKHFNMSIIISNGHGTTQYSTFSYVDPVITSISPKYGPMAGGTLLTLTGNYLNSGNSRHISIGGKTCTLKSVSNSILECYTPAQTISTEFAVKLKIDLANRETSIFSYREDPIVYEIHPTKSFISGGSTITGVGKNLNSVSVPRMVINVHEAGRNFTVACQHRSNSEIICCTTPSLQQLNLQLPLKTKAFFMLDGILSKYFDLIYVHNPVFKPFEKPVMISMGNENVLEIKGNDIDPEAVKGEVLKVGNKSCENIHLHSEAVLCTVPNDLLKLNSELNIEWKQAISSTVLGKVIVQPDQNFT

B1: Fab VH1-46_IGHD6-6*01_IGHJ1*01 S102A/S103P/S104F/H111F (H:APFF) & L6_IGKJ1*01 S76E (Fab, V domains shown)
VH: QVQLVQSGAEVKKPGASVKVSCKASGYTFTSYYMHWVRQAPGQGLEWMGIINPSGGSTSYAQKFQGRVTMTRDTSTSTVYMELSSLRSEDTAVYYCAREEYAPFSAEYFQFWGQGTLVTVSS
VL: EIVLTQSPATLSLSPGERATLSCRASQSVSSYLAWYQQKPGQAPRLLIYDASNRATGIPARFSGSGSGTDFTLTIESLEPEDFAVYYCQQRSNWPPWTFGQGTKVEIKR
notes: Fab expressed in E. coli from plasmid A (heavy chain CH1, His6 and Flag tags) and plasmid C (kappa CL)
Regarding B1, the ECL signal turned out to be 277 in [1]; 336 in assay [2]; 266 in assay [3]; 51600 in assay [4]; 313 in assay [5]; 228 in [6]. Moreover, the ECL signal in assay [7] was found to be 439; in assay [8] it was 440; in assay [9], 338.

B2: Fab VH1-46_IGHD6-6*01_IGHJ1*01 S102A/S103P/S104F/H111F (H:APFF) & L6_IGKJ1*01 S76P (Fab, V domains shown)
VH: B1 VH
VL: B1 VL with E76P
notes: as for B1
As to B2, the ECL signal in [10] came to 260; in [11], 347; in assay [12] it was 331; in [13], 29800; in assay [14] it was 402; in assay [15], 394. Also, the ECL signal in assay [16] is 313; in [17] it was 371; in [18] it was 271.

B3: Fab VH1-46_IGHD6-6*01_IGHJ1*01 S102A/S103P/S104F/H111F (H:APFF) & L6_IGKJ1*01 S76Q (Fab, V domains shown)
VH: B1 VH
VL: B1 VL with E76Q
notes: as for B1
Turning to B3, the ECL signal in assay [19] was determined as 264; in assay [20], 188; in [21] it was 324; in assay [22], 48300; in assay [23] it was 255; in assay [24] it was 386. The ECL signal in [25] came out at 287; in [26] it was 430; in assay [27], 364.

B4: Fab VH1-46_IGHD6-6*01_IGHJ1*01 S102A/S103P/S104F/H111F (H:APFF) & L6_IGKJ1*01 S76N (Fab, V domains shown)
VH: B1 VH
VL: B1 VL with E76N
notes: as for B1
As for B4, the ECL signal in [28] came out at 436; in [29], 378; in [30], 385; in assay [31] it was 52000; in [32], 298; in assay [33], 429. Besides, the values for the ECL signal in assay [34], in [35] and in assay [36] were 369, 384 and 329, respectively.
